Source: article PMC10121563 (2023)
One block for each binder: values may come before it.

Target: T1, GST::OsABI5 fusion protein (Oryza sativa subsp. japonica (Rice), UniProt Q8RZ35)
T1 chain: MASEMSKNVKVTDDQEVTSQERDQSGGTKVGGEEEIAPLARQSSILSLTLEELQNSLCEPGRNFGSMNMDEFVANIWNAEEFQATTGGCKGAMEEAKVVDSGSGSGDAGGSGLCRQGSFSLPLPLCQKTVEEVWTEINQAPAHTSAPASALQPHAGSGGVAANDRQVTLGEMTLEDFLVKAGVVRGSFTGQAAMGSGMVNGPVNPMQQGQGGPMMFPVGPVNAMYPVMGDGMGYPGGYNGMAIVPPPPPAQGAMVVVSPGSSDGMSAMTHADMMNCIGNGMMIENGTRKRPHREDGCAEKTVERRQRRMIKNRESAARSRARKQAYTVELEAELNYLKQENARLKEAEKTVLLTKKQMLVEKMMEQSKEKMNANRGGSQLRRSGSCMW
Assay: GST pull-down

binding result: binds
B1: MBP::OsJAZ6 fusion protein (protein)
chain: MASAKSGERGSSSFAMACSLLSRYVRQNGAAAGELGLGIRGEADANKGKETMELFPQNSGFGSEAAAVKETPDAREQEKRQLTIFYGGKVLVFDDFPAEKAKDLMQMASKSSSTAQNCVLLPSSATATVADNTKVSAVPAPASALPVAQANAPKPVRPNAADLPQARKASLHRFLEKRKDRLQAKAPYQGSPSDASPVKKELQESQPWLGLGPQVAAPDLSLRQESSQ

binding result: binds
B2: MBP::OsJAZ7 fusion protein (protein)
chain: MAASARPVGVGGERATSFAMACSLLSRYVRQNGAAAAELGLGIRGEGEAPRAAPATMSLLPGEAERKKETMELFPQSAGFGQQDAITADSAADAREQEPEKRQLTIFYGGKVLVFNDFPADKAKGLMQLASKGSPVAPQNAAAPAPAAVTDNTKAPMAVPAPVSSLPTAQADAQKPARANASDMPIARKASLHRFLEKRKDRLNAKTPYQASPSDATPVKKEPESQPWLGLGPNAVVKPIERGQ
